Source: publication PMC10385607

Molecular target: Human ALCAM (28–501)-6xhistidine tag (human) (UniProt Q13740)
Experiment: ELISA; competition with CD6-Fc

Sequence of Human ALCAM (28–501)-6xhistidine tag (human) (Q13740 28-501): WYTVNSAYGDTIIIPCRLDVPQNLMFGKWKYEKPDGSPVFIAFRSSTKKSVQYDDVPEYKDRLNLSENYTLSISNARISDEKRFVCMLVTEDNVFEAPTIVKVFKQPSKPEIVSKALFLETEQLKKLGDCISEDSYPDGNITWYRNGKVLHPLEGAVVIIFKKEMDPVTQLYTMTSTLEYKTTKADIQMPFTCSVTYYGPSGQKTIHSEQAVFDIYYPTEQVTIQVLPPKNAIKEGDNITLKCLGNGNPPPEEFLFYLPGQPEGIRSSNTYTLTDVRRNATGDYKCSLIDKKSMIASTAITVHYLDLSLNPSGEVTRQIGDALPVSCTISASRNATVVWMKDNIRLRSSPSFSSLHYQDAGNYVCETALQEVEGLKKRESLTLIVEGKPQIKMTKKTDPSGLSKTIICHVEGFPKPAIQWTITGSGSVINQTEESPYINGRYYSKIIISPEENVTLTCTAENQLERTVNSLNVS

mini-ab V2D7 (from UniProt P03069) showed an IC50 of 5.63 nM.
